Literature values as cited in PMC4785862.
Read-outs that look alike come from different tables or passages of the source.

Tests used:
IL-8 (Homo sapiens) [1] = biological target: IL-8 (Homo sapiens) (UniProt P10145)
IL-8 (Homo sapiens) [2] = biological target: IL-8 (Homo sapiens) (UniProt P10145); remark: listed apart in the source

Sequence of IL-8 (Homo sapiens) (P10145 28-99): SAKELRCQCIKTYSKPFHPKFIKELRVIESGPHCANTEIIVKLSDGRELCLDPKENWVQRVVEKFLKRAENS
Sequence of CXCR1 (P25024 whole entry): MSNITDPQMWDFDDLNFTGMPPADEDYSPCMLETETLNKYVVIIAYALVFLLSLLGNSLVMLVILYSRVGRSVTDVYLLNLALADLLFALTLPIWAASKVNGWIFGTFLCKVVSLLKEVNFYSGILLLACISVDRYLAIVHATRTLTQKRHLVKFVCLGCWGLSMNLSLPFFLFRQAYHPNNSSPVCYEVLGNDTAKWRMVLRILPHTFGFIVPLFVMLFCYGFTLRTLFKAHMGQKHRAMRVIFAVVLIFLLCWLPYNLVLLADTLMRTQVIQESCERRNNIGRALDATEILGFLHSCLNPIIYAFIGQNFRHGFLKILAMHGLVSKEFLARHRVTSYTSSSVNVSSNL
Sequence of CXCR2 (P25025 whole entry): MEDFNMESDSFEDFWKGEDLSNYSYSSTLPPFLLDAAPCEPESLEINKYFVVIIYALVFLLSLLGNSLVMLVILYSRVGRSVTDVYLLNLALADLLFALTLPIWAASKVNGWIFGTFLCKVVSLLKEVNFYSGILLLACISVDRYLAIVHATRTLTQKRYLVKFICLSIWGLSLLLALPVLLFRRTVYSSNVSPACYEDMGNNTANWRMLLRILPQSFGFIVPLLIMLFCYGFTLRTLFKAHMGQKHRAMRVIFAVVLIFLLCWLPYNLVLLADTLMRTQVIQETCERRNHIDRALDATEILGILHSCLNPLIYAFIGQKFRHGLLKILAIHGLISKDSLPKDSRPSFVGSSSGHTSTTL

| Kd (IL-8 (Homo sapiens) [1]) | Kd (IL-8 (Homo sapiens) [2]) | Substance |
| --- | --- | --- |
| 5 nM | – | CXCR1 (from UniProt P25024) |
| – | 2.5 nM | CXCR2 (from UniProt P25025) |
